# From patent publication US20250289865A1 (TIOC THERAPEUTICS, published 2025)
# T1: AFP peptide on HLA-A*02:01 (human)
# T1 peptide: FMNKFIYEI
# B1: AFP TCR (TCR, V domains shown)
# Valpha: SQQGEEDPQALSIQEGENATMNCSYKDRITNLQWYRQNSGRGLVHLILIRSNEREKHSGRLRVTLDTSKKSSSLLITASRAADTASYFCATDLEAEYKYIFGTGTRLKVLA
# Vbeta: ETGVTQSPTHLIKTRGQQVTLRCSSQSGHNTVSWYQQALGQGPQFIFQYYRQVANGRGNFPPRFSGLQFPNYSSELNVNALELDDSALYLCASSKDAGPVFFGQGTRLTVV
# B2: VH105-TCR β-AFP multi-domain bifunctional fusion molecule (other)
# TCR alpha: SQQGEEDPQALSIQEGENATMNCSYKDRITNLQWYRQNSGRGLVHLILIRSNEREKHSGRLRVTLDTSKKSSSLLITASRAADTASYFCATDLEAEYKYIFGTGTRLKVLANIQNPDPAVYQLRDSKSSDKSVCLFTDFDSQTNVSQSKDSDVYITDKTVLDMRSMDFKSNSAVAWSNKSDFACANAFNNSIIPEDTFFCSPESS
# chain: EVQLVESGGGLVQPGGSLRLSCAASGYSFTGYTMNWVRQAPGKGLEWVALINPYKGVSTYNQKFKDRFTISVDKSKNTAYLQMNSLRAEDTAVYYCARSGYYGDSDWYFDVWGCGTLVTVSSGGGGSETGVTQSPTHLIKTRGQQVTLRCSSQSGHNTVSWYQQALGQGPQFIFQYYRQVANGRGNFPPRFSGLQFPNYSSELNVNALELDDSALYLCASSKDAGPVFFGQGTRLTVVEDLKNVFPPEVAVFEPSECEISHTQKATLVCLATGFYPDHVELSWWVNGKEVHSGVSTDPQPLKEQPALNDSRYALSSRLRVSATFWQNPRNHFRCQVQFYGLSENDEWTQDRAKPVTQIVSAEAWGRAD
# VL: DIQMTQSPSSLSASVGDRVTITCRASQDIRNYLNWYQQKPGKCPKLLIYYTSRLESGVPSRFSGSGSGTDYTLTISSLQPEDFATYYCQQGNTLPWTFGQGTKVEIKR
# Columns and labels:
# [1] = target: peptide on A2 positive (human); assay: LDH release; CD8+ T cells, E:T 1:1; AFP-negative, A2-positive control cells. No unit is printed with the value.; fusion: antibody heavy chain variable region (Gln105Cys) on the beta chain, with free VL Ala43Cys; conditions: chains Valpha:Vbeta
# [2] = target: T1, AFP peptide on HLA-A*02:01; assay: killing
# [3] = target: … short peptide (AFP 158-166) presented on the HLA-A*0201 molecule; assay: cell-based or functional assay
Binder,EC50 of fusion protein in killing [1],binding result [2],"EC50 of CD8+ T cell killing (LDH release), HepG2 (A2 positive, AFP positive) [3]"
B1,2700 nM,recognises,
B2,,,10.5 nM
